{
  "source": "paper PMC12434095",
  "about": "“LysR-type transcriptional regulator CARR represses the expression of bla CAR-2 and reduces P. diazotrophicus resistance to cefalothin, cefuroxime and cefotaxime” (Frontiers in Cellular and Infection Microbiology, 2025)",
  "experiment_in_all_cases": "purified protein",
  "assay_type_in_all_cases": "biochemical, Phytobacter diazotrophicus",
  "key": {"[1]": {"system": "CC(=O)OCC1=C(C(=O)O)N2C(=O)[C@@H](NC(=O)Cc3cccs3)[C@H]2SC1", "conditions": "50 mM HEPES pH 7.5, 25°C, 50 µM ZnSO4, 0.634 µM enzyme"}, "[2]": {"system": "CO/N=C(\\C(=O)N[C@@H]1C(=O)N2C(C(=O)O)=C(COC(C)=O)CS[C@H]12)c1csc(N)n1", "conditions": "50 mM HEPES pH 7.5, 25°C, 50 µM ZnSO4, 0.634 µM enzyme, kcat 0.61 in source"}, "[3]": {"system": "CO/N=C(\\C(=O)N[C@@H]1C(=O)N2C(C(=O)O)=C(COC(N)=O)CS[C@H]12)c1ccco1", "conditions": "50 mM HEPES pH 7.5, 25°C, 50 µM ZnSO4, 1.27 µM enzyme"}},
  "data": [
    {"substance": "CAR-2 (Phytobacter diazotrophicus)", "values": [
      {"measurement": "Km", "setting": "[1]", "value": 63.78, "unit": "µM"},
      {"measurement": "Vmax", "setting": "[1]", "value": 31.8, "unit": "µM/min"},
      {"measurement": "kcat", "setting": "[1]", "value": 0.84, "unit": "s⁻¹"},
      {"measurement": "kcat/Km", "setting": "[1]", "value": 13200, "unit": "M⁻¹ s⁻¹"},
      {"measurement": "Km", "setting": "[2]", "value": 33.08, "unit": "µM"},
      {"measurement": "Vmax", "setting": "[2]", "value": 23.4, "unit": "µM/min"},
      {"measurement": "kcat", "setting": "[2]", "value": 0.62, "unit": "s⁻¹"},
      {"measurement": "kcat/Km", "setting": "[2]", "value": 18700, "unit": "M⁻¹ s⁻¹"},
      {"measurement": "Km", "setting": "[3]", "value": 49.28, "unit": "µM"},
      {"measurement": "Vmax", "setting": "[3]", "value": 16.2, "unit": "µM/min"},
      {"measurement": "kcat", "setting": "[3]", "value": 0.21, "unit": "s⁻¹"},
      {"measurement": "kcat/Km", "setting": "[3]", "value": 4260, "unit": "M⁻¹ s⁻¹"}
    ]}
  ]
}
